Test results published in the supplement of paper PMC10567573.

B1: ZNF24 (parent)
chain: THTKEQILELVVLEQFVAILPKEL

Variants of: B1
Experiment: protein stability index of a GFP-peptide fusion (GPS, HEK-293T) (PSI 1-6); higher = more stable
Details: c terminus: a fixed tail appended
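Also: lentivirally expressed fusions sorted by FACS into six bins by GFP to DsRed ratio, PSI derived from sequencing read proportions per bin multiplied by bin number.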

Protein stability index, by site and new letter:
L8: E 2.32; A 2.28; Y 2.66; S 1.57; K 1.84; P 2.16; M 2.41; W 3.68; D 2.52; R 1.85; N 1.57; I 2.79; F 3.62; C 2.75
T3: E 3.23; G 4.09; C 1.53; K 2.96; A 3.86; V 2; D 2.43; I 2.65; S 3.88; R 2.26; Y 3.59; H 2.23; F 2.76; W 3.42; L 3.11; N 3.1
E23: Y 3.09; M 3.72; I 2.56; C 3.17; D 2.29; G 3.15; L 1.68; A 2.59; V 2.76; T 1.75; N 2.97; P 3.16; S 2.01; K 1.64; W 3.51; H 3.33; Q 2.54
K22: R 2.78; C 2.67; F 3.51; N 2.39; V 2.71; H 2.12; W 2.08; G 4.16; D 3.16
E9: S 3.48; M 2.04; T 2.29; H 3.25; L 2.62; A 3.22; G 2.85; W 2.87; V 3.25; C 1.64; Y 3.52; Q 2.69
V12: K 2.07; Y 2.64; S 2.03; I 3.17; T 1.99; F 2.93; P 2.19; L 2.12; D 2.27; G 1.98; C 2.23; H 1.8; M 2.51
A18: W 2.51; E 2.1; S 1.95; V 2.58; R 2.05; F 1.44; P 2.48; L 2.04; C 3.45; H 3.02; M 1.65; K 2.49; N 2.67; G 2.88
L10: G 1.7; R 1.72; E 2.12; D 2.69; T 2.03; K 2.04; I 2.02; Q 2.26; F 2.35; P 2.09; A 2.28; S 1.72; H 1.65
Q6: H 1.8; M 3.56; L 3.47; N 2.52; E 2.46; S 2.96; C 2.11; P 4; D 1.55; W 2.41; K 3.65; Y 4.9; G 3.09; F 3.53; I 3.01; V 3.24; R 2.56; A 2.33; T 3.03
F16: P 1.94; A 1.91; M 2.5; D 2.33; G 1.69; R 1.99; I 1.43; H 2.13; T 1.82; Y 1.76; K 1.95; V 2.02; N 2.21; W 2.54; S 2.27; E 2.03
E14: T 2.64; P 2.12; G 3.21; R 2.95; M 2.67; K 2.61; F 2.48; H 2.94; C 2.45; Q 2.97; Y 3.47
V17: A 3.14; M 2.31; H 2.25; D 1.71; L 2.47; S 2.95; P 1.94; F 2.47; Q 2.02; W 2.19; Y 2.53; K 1.54; E 1.91; C 2.49
K4: M 2.91; H 2; G 3.12; Q 2.59; N 2.23; W 2.88; F 4.57; D 2.45; R 1.59; Y 2.51; C 3.41; S 2.19; L 4.05
P21: I 1.92; A 3.78; T 2.57; R 3.28; N 3.62; S 1.42; Y 3.02; L 2.44; F 1.92; K 3.31; Q 2.66; H 3.6; M 3.76; V 2.28; E 2.23
L24: W 2.54; R 2.47; E 1.7; G 2.16; I 2.4; A 2.57; S 2.86; P 4.16; K 2.33; T 2.7; H 2.66; D 1.67
T1: N 2.86; L 1.56; A 3.53; G 2.25; V 3.19; S 3.3; F 3.59; E 2.81; R 1.94; W 2.72; D 2.63; K 2.39; P 3.09; Q 1.32; I 2.73
Q15: K 1.75; Y 2.18; F 2.79; C 1.66; G 2.95; S 2.93; E 2.55; I 2.87; N 2.81; T 3.75; R 2.81; H 2.53; M 2.63; D 1.91
I19: H 2.32; D 1.77; K 2.14; F 2.22; R 2.16; P 1.73; C 2.61; L 2.38; V 4.1; W 1.85; A 1.98; M 3.34; G 1.52; Q 2.01; E 2.37; S 1.95
L20: M 1.95; S 2.33; A 3.07; K 1.63; T 2.44; C 2.24; V 2.19; Y 1.46; D 2.6; N 1.83; H 1.67; W 4.08; G 1.94; P 2.78
V11: D 2.36; I 3.03; T 2; K 1.47; E 1.86; M 2.6; C 2.51; A 2.1; N 2.15; G 2.05; H 2.18; W 3.42; L 2.43; R 1.76
H2: A 3.12; K 3.34; E 2.74; L 4.38; G 2.96; C 2.25; P 1.76; F 2.4; N 2.59; Q 3.14; T 2.23; M 3.24; I 3.4
L13: D 2.29; W 2.67; T 2.77; Y 2.88; N 1.73; R 1.85; I 3.27; F 2.47; H 1.76; Q 2.34; M 2.18; C 1.98
E5: A 2; I 3.67; R 3.65; V 3.53; W 2.85; Q 2.97; Y 2.01; T 3.59; G 2.7; N 3.01; H 2.42; F 2.12; K 2.23
I7: Q 1.89; M 3.04; C 1.59; K 1.56; H 2.04; S 2.04; N 1.65; T 2.11; R 1.9; G 1.76; F 2.54; P 2.48; L 2.16; E 2.55; D 2.35
